Reference: patent US20230263916A1 (NANOMAB TECHNOLOGY, published 2023)
Substitutions are numbered along the chain they refer to.

B1: Nanobody No. 17 (VHH)
VHH: QVQLQESGGGSVQAGGSLRLSCTASGFTFDDSDMGWYRQAPGNECELVSTISSDGSTYYADSVKGRFTISQDNAKNTVYLQMNSLKPEDTAVYYCADVQIPYGLGTCESLDYWGRGTQVTVSS
notes: camel VHH from pMECs phage display vector; also called Antibody no; 17; not shown: tags (HA, His) implied by anti-HA detection and nickel column
B2: Nanobody No. 13 (VHH)
VHH: QVQLQESGGGSVQAGETLRLSCTASGFTFDDSDMGWYRQAPGNECELVSTISADGSTFYADSVKGRFTISQDNAKNTVYLQMNSLKPEDTAVYYCASPENEYELGTCEALDYWGQGTQVTVSS
notes: camel VHH from pMECs phage display vector; also called Antibody no; 13; not shown: tags (HA, His) implied by anti-HA detection and nickel column
B3: Nanobody No. 23 (VHH)
VHH: QVQLQESGGGSVQAGGSLKLSCSASGFTFDDTDMGWYRQAPGNECELVSTISSDGTTYYTDSVKGRFTISQDNAKNTVYLQMNSLKPEDTAVYYCAAINSGYELGTCESLDYWGRGTQVTVSS
notes: camel VHH from pMECs phage display vector; also called Antibody no; 23; not shown: tags (HA, His) implied by anti-HA detection and nickel column
B4: Nanobody No. 26 (VHH)
VHH: QVQLQESGGGSVQAGETLRLSCTASGFTFDDSDMGWYRQAPGNECELVSSISSDGSTYYADSVKGRFTISQDNAKNTVYLQMNSLKPEDTGVYYCAAEGHRYELGTCAALDYWGRGTQVTVSS
notes: camel VHH from pMECs phage display vector; also called Antibody no; 26; not shown: tags (HA, His) implied by anti-HA detection and nickel column
B5: Nanobody No. 22 (VHH)
VHH: B3 VHH with K19R, S23T, T32S, T50R, S53R, T60A, A97D
notes: camel VHH from pMECs phage display vector; also called Antibody no; 22; not shown: tags (HA, His) implied by anti-HA detection and nickel column
B6: Nanobody No. 9 (VHH)
VHH: QVQLQESGGGSVQAGETLRLSCTASGFTFDDSDMGWYRQAPGSECELVSTISSDGNTYYSNSVKGRFTISQDNAKNTVYLQMNSLKPEDTAVYYCAADDQHYELGTCEALDYWGRGTQVTVSS
notes: camel VHH from pMECs phage display vector; also called Antibody no; not shown: tags (HA, His) implied by anti-HA detection and nickel column
B7: Nanobody No. 10 (VHH)
VHH: B6 VHH with R19K, D33T, G35A, S43N, E46K, N56S, S60A, N61D, H101N
notes: camel VHH from pMECs phage display vector; also called Antibody no; 10; not shown: tags (HA, His) implied by anti-HA detection and nickel column

How the values were obtained:
[1] = biological target: T1, Her2 on cells (BT474, high expression; MDA-MB-231, low expression) (UniProt P04626 23-1255, limits assumed); test: flow cytometry on MDA-MB-231 cells (low Her2), anti-HA Alexa Fluor488
T1 construct: whole, on cells; Endogenous Her2 of tumour cell lines
Protocol: (§1) (3) Cells were divided into 96-well plates after washing, where number of cells per sample was 3×10⁵. The dilute nanobodies were then added to each well, mixed and placed at 4° C. for 20 min.
(§2) (4) Cells were washed twice with PBS and resuspended with 100 uL PBS. […] Mouse anti-HA Alexa Fluor488 labeled antibody was then added to each sample, mixed and placed at 4° C. for 20 min.
(§3) (5) Cells were washed twice with PBS and then resuspended to the flow tube with 300 uL PBS. Samples were kept on ice in dark condition. Detection was held via machine.

[2] = biological target: T2, human Her2 (ECD)-Fc protein (human, UniProt P04626 23-652); test: PE-ELISA, A405 of antigen well over control well
T2 construct: extracellular domain; Made in HEK293F cells; also called hHer2 (ECD)-Fc antigen; Her2 (ECD)-Fc antigen; not shown: TEV restriction site at the C-terminal of hHer2 (ECD); IgG1 Fc of the pFUSE-IgG1 vector
Protocol: (§4) (1) 10 μg Her2 (ECD)-Fc antigen (10 μg Fc in NaHCO₃ as control) dissolved in 100 mM NaHCO₃ (pH 8.2) was coupled to a NUNC plate then incubated at 4° C. overnight.
(§5) (5) The unbound antibody was washed off with PBST.
(§6) (6) When the OD value of the sample was over 3 times of the OD value of the control sample (Ratio+/−>3), the tested sample was determined to be a positive clone. […] Then all the positive clones were transferred to LA medium for plasmid extraction and sequencing.

[3] = biological target: T3, human HER2 antigen protein (human, UniProt P04626 23-652); test: Biacore, Her2 immobilised on CM-5 chip
T3 construct: Antigen coated in the ELISA of Embodiment 5 and immobilised on the CM-5 chip in Embodiment 7; Embodiment 7 says only 'antigen protein Her2' without species or construct; also called antigen protein Her2
Protocol: (1) Immobilization: the stationary phase antigen protein Her2 was immobilized on the surface of CM-5 sensor chip by carboxyl amino reaction.
(3) Chip regeneration: when next antibody was determined, the chip was washed with 10 mM Glycine.

[4] = biological target: T2, human Her2 (ECD)-Fc protein; test: PE-ELISA, crude extract on antigen-coated plate
Protocol: as §4, §5, §6

[5] = biological target: T1, Her2 on cells (BT474, high expression; …); test: flow cytometry on BT474 cells (high Her2), anti-HA Alexa Fluor488
Protocol: as §1, §2, §3

Binder	positive rate [1] [%]	Ratio(+/-) [2]	Kd [3] [nM]	koff [3] [s⁻¹]	kon [3] [M⁻¹ s⁻¹]	A405+ [4] [A405]	positive rate [5] [%]
B1	12.3	23.8	6.68	0.00421	631000	1.88	99.9
B2	14.2	25.1	1.18	0.0015	1.27e+06	2.24	99.9
B3	11.5	17.1	3.73	0.00255	682000	1.77	99.9
B4	16.7	21.1	1.31	0.00112	857000	1.9	99.9
B5	5.8	21.3	1.98	0.0019	957000	1.78	99.7
B6	9.5	24.3	3.6	0.00397	1.11e+06	2.15	99.8
B7	10.6	22.4	6.47	0.00457	706000	1.63	99.7
